These results are taken from patent publication US20200317768A1 (published 2020).

In assay [1] the target is T1, cynomolgus monkey FcγRIIb extracellular domain, C-terminal His-tag (cynomolgus monkey).
T1 construct: also called cyno FcγRIIb; cynoFcγRIIb; not shown: His-tag added to C-terminus
T1 chain: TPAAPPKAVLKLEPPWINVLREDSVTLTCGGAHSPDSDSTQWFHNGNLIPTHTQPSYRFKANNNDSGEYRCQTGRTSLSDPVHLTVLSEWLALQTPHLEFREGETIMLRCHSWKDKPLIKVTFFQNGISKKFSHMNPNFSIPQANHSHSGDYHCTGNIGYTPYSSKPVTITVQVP
Briefly: SPR (BIACORE); KD of parent SG1 / KD of variant.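 Note: relative to parent M103205H795-SG1 carrying the SG1 human heavy chain constant region.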 A general note: In SPR one partner is held on a chip, and binding of the other changes the refractive index at the surface.

In assay [2] the target is T2, cynomolgus monkey FcγRIIa2 extracellular domain, C-terminal His-tag (cynomolgus monkey).
T2 construct: also called cyno FcγRIIa2; cynoFcgRIIa2; not shown: His-tag added to C-terminus
T2 chain: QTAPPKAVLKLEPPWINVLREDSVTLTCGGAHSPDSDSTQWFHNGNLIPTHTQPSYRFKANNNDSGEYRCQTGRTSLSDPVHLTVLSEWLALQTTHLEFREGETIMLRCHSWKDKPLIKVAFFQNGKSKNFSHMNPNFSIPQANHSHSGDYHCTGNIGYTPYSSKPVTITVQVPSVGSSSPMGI
As to the kind of experiment: SPR (BIACORE); KD of parent SG1 / KD of variant.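 Note: relative to parent M103205H795-SG1 carrying the SG1 human heavy chain constant region.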

Assay [3] deals with T3, human FcγRIIaH extracellular domain, C-terminal His-tag (human, UniProt P12318 34-217).
T3 construct: also called human FcγRIIa (type H); FcgRIIaH; not shown: His-tag added to C-terminus
T3 sequence: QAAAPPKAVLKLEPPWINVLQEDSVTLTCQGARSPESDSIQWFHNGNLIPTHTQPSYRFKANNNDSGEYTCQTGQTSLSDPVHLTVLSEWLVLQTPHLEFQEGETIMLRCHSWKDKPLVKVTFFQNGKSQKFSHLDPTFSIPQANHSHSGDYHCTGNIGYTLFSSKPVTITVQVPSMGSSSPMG
As to the kind of experiment: SPR (BIACORE); KD of parent SG1 / KD of variant.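 Note: relative to parent M103205H795-SG1 carrying the SG1 human heavy chain constant region.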

Assay [4] concerns the target T4, human FcγRIIaR extracellular domain, C-terminal His-tag (human, UniProt P12318 34-217).
T4 construct: also called human FcγRIIa (type R); FcgRIIaR; not shown: His-tag added to C-terminus
T4 chain: T3 sequence with H134R
Briefly: SPR (BIACORE); KD of parent SG1 / KD of variant.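 Note: relative to parent M103205H795-SG1 carrying the SG1 human heavy chain constant region.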

Assay [5] has as its target T5, cynomolgus monkey FcγRIIa1 extracellular domain, C-terminal His-tag (cynomolgus monkey).
T5 construct: also called cyno FcγRIIa1; cynoFcgRIIa1; not shown: His-tag added to C-terminus
T5 chain: T2 chain with T95P, A121T, K127I, S128A, N130K, N135D, Q142R
As to the kind of experiment: SPR (BIACORE); KD of parent SG1 / KD of variant.

For assay [6], the target named is T6, human FcγRIIb extracellular domain, C-terminal His-tag (human, UniProt P31994 43-217).
T6 construct: also called humanFcgRIIb; not shown: His-tag added to C-terminus
T6 sequence: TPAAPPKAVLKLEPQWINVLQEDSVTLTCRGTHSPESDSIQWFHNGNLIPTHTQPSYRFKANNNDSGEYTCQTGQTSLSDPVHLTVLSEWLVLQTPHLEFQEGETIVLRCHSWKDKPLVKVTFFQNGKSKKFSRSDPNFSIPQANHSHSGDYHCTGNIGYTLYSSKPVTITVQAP
Briefly: SPR (BIACORE); KD of parent SG1 / KD of variant.

The target of assay [7] is T7, cynomolgus monkey FcγRIIIaS extracellular domain, C-terminal His-tag (cynomolgus monkey, UniProt A3RFZ7 21-206 (rhesus entry)).
T7 construct: also called cyno FcγRIIIaS; cynoFcγRIIIaS; not shown: His-tag added to C-terminus
T7 sequence (A3RFZ7 21-206): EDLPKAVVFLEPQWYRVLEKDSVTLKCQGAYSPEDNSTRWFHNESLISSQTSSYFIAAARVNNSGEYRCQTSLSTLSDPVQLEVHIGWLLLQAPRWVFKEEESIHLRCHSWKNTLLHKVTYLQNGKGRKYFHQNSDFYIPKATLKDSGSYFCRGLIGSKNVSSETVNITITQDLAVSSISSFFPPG
As to the kind of experiment: SPR (BIACORE); KD of parent SG1 / KD of variant.

For assay [8], the target named is T8, cynomolgus monkey FcγRIIa3 extracellular domain, C-terminal His-tag (cynomolgus monkey).
T8 construct: also called cyno FcγRIIa3; cynoFcgRIIa3; not shown: His-tag added to C-terminus
T8 chain: T2 chain with K127I, N130K, H133P, Q142R
Briefly: SPR (BIACORE); KD of parent SG1 / KD of variant.

For assay [9], the target named is T9, human FcγRIIIaV extracellular domain, C-terminal His-tag (human, UniProt P08637 17-208).
T9 construct: also called FcgRIIIaV; not shown: His-tag added to C-terminus
T9 sequence (P08637 17-208 F176V): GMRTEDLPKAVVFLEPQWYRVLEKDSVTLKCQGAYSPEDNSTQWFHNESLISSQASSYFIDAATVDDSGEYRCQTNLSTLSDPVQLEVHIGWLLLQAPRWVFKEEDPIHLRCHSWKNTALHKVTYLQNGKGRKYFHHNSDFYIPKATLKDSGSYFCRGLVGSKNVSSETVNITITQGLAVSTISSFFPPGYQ
Briefly: SPR (BIACORE); KD of parent SG1 / KD of variant.

Assay [10] addresses T1, cynomolgus monkey FcγRIIb extracellular …. Briefly: SPR (BIACORE), antibody captured, FcγR analyte.
The target of assay [11] is T2, cynomolgus monkey FcγRIIa2 …. Briefly: SPR (BIACORE), antibody captured, FcγR analyte.
Assay [12] deals with T3, human FcγRIIaH extracellular domain, …. As to the kind of experiment: SPR (BIACORE), antibody captured, FcγR analyte.
The target of assay [13] is T4, human FcγRIIaR extracellular domain, …. Briefly: SPR (BIACORE), antibody captured, FcγR analyte.
In assay [14] the target is T5, cynomolgus monkey FcγRIIa1 …. As to the kind of experiment: SPR (BIACORE), antibody captured, FcγR analyte.
Assay [15] concerns the target T6, human FcγRIIb extracellular domain, …. As to the kind of experiment: SPR (BIACORE), antibody captured, FcγR analyte.
The target of assay [16] is T7, cynomolgus monkey FcγRIIIaS …. As to the kind of experiment: SPR (BIACORE), antibody captured, FcγR analyte.
In assay [17] the target is T8, cynomolgus monkey FcγRIIa3 …. As to the kind of experiment: SPR (BIACORE), antibody captured, FcγR analyte.
The target in assay [18] is T9, human FcγRIIIaV extracellular domain, …. Briefly: SPR (BIACORE), antibody captured, FcγR analyte.

Where a chain is given by its changes, count along the chain named. Names and notes keep the numbering of the source.

B1: M103240H795-SG1079 / M103202L1045-SK1 (antibody)
heavy: QVQLVESGGGLVQPGGSLRLSCAVSGIDLSHDDISWVRQAPGKGLEWVSIISYAGSTYYASWAKGRLTISKDTSKNQVVLTMTNMDPVDTATYYCARGVPAYSHGGDLWGQGTLVTVSSASTKGPSVFPLAPSSKSTSGGTAALGCLVKDYFPEPVTVSWNSGALTSGVHTFPAVLQSSGLYSLSSVVTVPSSSLGTQTYICNVNHKPSNTKVDKKVEPKSCDKTHTCPPCPAPELLNGPSVFLFPPKPKDTLMISRTPEVTCVVVDVSDEDPEVKFNWYVDGVEVHNAKTKPREELYNSTYRVVSVLTVLHRDWLNGKEYKCKVSNKALPKPIEKTISKAKGQPREPQVYTLPPSREEMTKNQVSLTCLVKGFYPSDIAVEWESNGQPENNYKTTPPVLDSDGSFFLYSKLTVKKSRWQQGNVFSCSVMHEALHAHYTRKELSLSP
light: DIVMTQSPATLSLSPGERATLSCTTSQSVYHENWLSWFQQKPGQPPKLLIYWASTLAYGVPSRFSGSGSGTDFTLTISSLQPEDAATYYCAGGYGGGRYAFGQGTKVEIKRTVAAPSVFIFPPSDEQLKSGTASVVCLLNNFYPREAKVQWKVDNALQSGNSQESVTEQDSKDSTYSLSSTLTLSKADYEKHKVYACEVTHQGLSSPVTKSFNRGEC
notes: CH with G236N/H268D/Q295L/Q311R/A330K/D413K/N434A/Q438R/S440E against SG1 (EU numbering); also called MS1032LO19-SG1079
For B1, the “KD fold (SG1 = 1)” value was 5.7 fold in assay [1]; 3.4 fold in [2]; 1.4 fold in [3]; 0.8 fold in [4]; 3.4 fold in assay [5]; 5.6 fold in assay [6]. Besides, the “KD fold (SG1 = 1)” value in [7] is 0.08 fold; in assay [8], 3.2 fold; in [9] it was 0.18 fold. Besides, the Kd is 0.3 µM in [10]; 1.2 µM in [11]; 0.67 µM in assay [12]; 1.2 µM in [13]; 1.1 µM in [14]; 0.69 µM in assay [15]. Moreover, the equilibrium dissociation constant (Kd) in assay [16] was determined as 3.3 µM; in [17] it was 2.1 µM; in assay [18], 5.2 µM.

B2: M103240H795-SG1077 / M103202L1045-SK1 (antibody)
heavy: B1 heavy with L237W, K328T, P345R, K415D, M430L, Y438T
light: B1 light
notes: CH with L235W/G236N/H268D/Q295L/Q311R/K326T/A330K/P343R/M428L/N434A/Y436T/Q438R/S440E against SG1 (EU numbering); also called MS1032LO19-SG1077
With B2, the “KD fold (SG1 = 1)” value in assay [1] came to 5.4 fold; in [2] it was 3.1 fold; in [3], 1 fold; in assay [4], 1.4 fold; in assay [5], 2.7 fold; in assay [6], 7.5 fold. For the same molecule, the “KD fold (SG1 = 1)” value in assay [7] turned out to be 0.09 fold; in [8], 3.3 fold; in assay [9] it was 0.17 fold. For the same molecule, the equilibrium dissociation constant (Kd) in assay [10] is 0.32 µM; in [11], 1.3 µM; in assay [12], 0.93 µM; in assay [13] it was 0.69 µM; in assay [14], 1.4 µM; in [15], 0.51 µM. Besides, the Kd worked out at 2.9 µM in [16], 2 µM in assay [17] and 3.4 µM in assay [18].

B3: M103240H795-SG1081 / M103202L1045-SK1 (antibody)
heavy: B1 heavy with L237W, K328T, P345R, K415D
light: B1 light
notes: CH with L235W/G236N/H268D/Q295L/Q311R/K326T/A330K/P343R/N434A/Q438R/S440E against SG1 (EU numbering); also called MS1032LO19-SG1081
For B3, the “KD fold (SG1 = 1)” value turned out to be 5.9 fold in assay [1]; 3.2 fold in [2]; 1 fold in assay [3]; 1.4 fold in assay [4]; 2.7 fold in assay [5]; 7.7 fold in [6]. The “KD fold (SG1 = 1)” value in assay [7] came to 0.09 fold; in assay [8], 3.1 fold; in [9] it was 0.17 fold. For the same molecule, the Kd in [10] was 0.29 µM; in assay [11], 1.8 µM; in assay [12], 0.99 µM; in assay [13] it was 0.68 µM; in assay [14], 1.4 µM; in assay [15], 0.5 µM. Also, the results for the Kd in [16], in [17] and in [18] were 2.9 µM, 2.1 µM and 3.4 µM, respectively.

B4: M103240H795-SG1080 / M103202L1045-SK1 (antibody)
heavy: B1 heavy with K328T, P345R, K415D
light: B1 light
notes: CH with G236N/H268D/Q295L/Q311R/K326T/A330K/P343R/N434A/Q438R/S440E against SG1 (EU numbering); also called MS1032LO19-SG1080
As for B4, the “KD fold (SG1 = 1)” value in [1] was 12.6 fold; in assay [2], 6.1 fold; in assay [3], 2.1 fold; in [4] it was 1.7 fold; in assay [5] it was 5.8 fold; in assay [6], 10.5 fold. The entries for the “KD fold (SG1 = 1)” value in [7], in assay [8] and in [9] were 0.19 fold, 6.1 fold and 0.13 fold, respectively. Also, the Kd in assay [10] stood at 0.14 µM; in assay [11] it was 0.68 µM; in assay [12] it was 0.45 µM; in assay [13], 0.56 µM; in [14] it was 0.65 µM; in assay [15], 0.37 µM. Moreover, the dissociation constant Kd came out at 1.4 µM in assay [16], 1.1 µM in assay [17] and 4.6 µM in [18].

Usually Kd stands for a measure of binding affinity in units of concentration.
